Experimental data reported in US20260167710A1 (GlaxoSmithKline, published 2026).

Columns and labels:
human IL-33 [1] = target: T1, human IL-33 (human, Biotinylated in Example 2; the site is not stated.); assay: cell-based or functional assay
T1 chain: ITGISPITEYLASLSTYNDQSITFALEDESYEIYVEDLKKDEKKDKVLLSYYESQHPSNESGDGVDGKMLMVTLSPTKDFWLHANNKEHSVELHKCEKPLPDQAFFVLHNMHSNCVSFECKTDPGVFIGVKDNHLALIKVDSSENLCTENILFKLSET

human IL-1b = target: T2, human IL-1b (human, UniProt P01584 117-269); assay: BLI (Octet RED384), antibody on protein A sensors, single shot
T2 construct: also called IL-1b (R&D Systems #201-LB)

human IL-1a = target: T3, human IL-1a (human, UniProt P01583 113-271); assay: as above
T3 construct: also called IL-1a (R&D Systems #200-LA)
T3 sequence (looked up): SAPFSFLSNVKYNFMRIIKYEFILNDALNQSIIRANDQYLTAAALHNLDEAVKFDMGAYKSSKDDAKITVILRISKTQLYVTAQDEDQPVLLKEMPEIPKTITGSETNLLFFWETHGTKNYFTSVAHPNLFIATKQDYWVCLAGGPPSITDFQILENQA

human IL-33 [2] = target: T1, human IL-33; assay: cell-based or functional assay
human IL-33 [3] = target: T1, human IL-33; assay: cell-based or functional assay
human IL-33 [4] = target: T1, human IL-33; assay: cell-based or functional assay

IC50, inhibition of 10 ng/mL IL-33 induced IFN-γ secretion from whole blood, non-pre-complexed, Mean (human IL-33 [1]): 0.37 nM
IC50, inhibition of 10 ng/mL IL-33 induced IFN-γ secretion from whole blood, non-pre-complexed, donor #32871 (human IL-33 [1]): 0.21 nM
IC50, inhibition of 10 ng/mL IL-33 induced IFN-γ secretion from whole blood, non-pre-complexed, donor #90237 (human IL-33 [1]): 0.73 nM
IC50, inhibition of 10 ng/mL IL-33 induced IFN-γ secretion from whole blood, non-pre-complexed, donor #91680 (human IL-33 [1]): 0.43 nM
IC50, inhibition of 10 ng/mL IL-33 induced IFN-γ secretion from whole blood, non-pre-complexed, donor #91955 (human IL-33 [1]): 0.08 nM
IC50, inhibition of 10 ng/mL IL-33 induced IFN-γ secretion from whole blood, non-pre-complexed, donor #91986 (human IL-33 [1]): 0.36 nM
IC50, inhibition of 10 ng/mL IL-33 induced IFN-γ secretion from whole blood, non-pre-complexed, donor #92251 (human IL-33 [1]): 0.42 nM
pIC50, inhibition of 10 ng/mL IL-33 induced IFN-γ secretion from whole blood, non-pre-complexed, Mean (human IL-33 [1]): 9.51
pIC50, inhibition of 10 ng/mL IL-33 induced IFN-γ secretion from whole blood, non-pre-complexed, donor #32871 (human IL-33 [1]): 9.67
pIC50, inhibition of 10 ng/mL IL-33 induced IFN-γ secretion from whole blood, non-pre-complexed, donor #90237 (human IL-33 [1]): 9.13
pIC50, inhibition of 10 ng/mL IL-33 induced IFN-γ secretion from whole blood, non-pre-complexed, donor #91680 (human IL-33 [1]): 9.37
pIC50, inhibition of 10 ng/mL IL-33 induced IFN-γ secretion from whole blood, non-pre-complexed, donor #91955 (human IL-33 [1]): 10.1
pIC50, inhibition of 10 ng/mL IL-33 induced IFN-γ secretion from whole blood, non-pre-complexed, donor #91986 (human IL-33 [1]): 9.44
pIC50, inhibition of 10 ng/mL IL-33 induced IFN-γ secretion from whole blood, non-pre-complexed, donor #92251 (human IL-33 [1]): 9.37
binding result (human IL-1b): no binding (tested: 100 nM)
binding result (human IL-1a): no binding (tested: 100 nM)
IC50, inhibition of IL-33 (5.0 nM) induced β-hexosaminidase release from basophils, pre-complexed, Mean (human IL-33 [2]): 2.03 nM
IC50, inhibition of IL-33 (5.0 nM) induced β-hexosaminidase release from basophils, pre-complexed, donor #33235 (human IL-33 [2]): 1.39 nM
IC50, inhibition of IL-33 (5.0 nM) induced β-hexosaminidase release from basophils, pre-complexed, donor #90290 (human IL-33 [2]): 4.53 nM
IC50, inhibition of IL-33 (5.0 nM) induced β-hexosaminidase release from basophils, pre-complexed, donor #90356 (human IL-33 [2]): 1.23 nM
IC50, inhibition of IL-33 (5.0 nM) induced β-hexosaminidase release from basophils, pre-complexed, donor #90541 (human IL-33 [2]): 0.97 nM
pIC50, inhibition of IL-33 (5.0 nM) induced β-hexosaminidase release from basophils, pre-complexed, Mean (human IL-33 [2]): 8.78
pIC50, inhibition of IL-33 (5.0 nM) induced β-hexosaminidase release from basophils, pre-complexed, donor #33235 (human IL-33 [2]): 8.86
pIC50, inhibition of IL-33 (5.0 nM) induced β-hexosaminidase release from basophils, pre-complexed, donor #90290 (human IL-33 [2]): 8.34
pIC50, inhibition of IL-33 (5.0 nM) induced β-hexosaminidase release from basophils, pre-complexed, donor #90356 (human IL-33 [2]): 8.91
pIC50, inhibition of IL-33 (5.0 nM) induced β-hexosaminidase release from basophils, pre-complexed, donor #90541 (human IL-33 [2]): 9.01
IC50, inhibition of 30 ng/mL IL-33 induced IFN-γ secretion from whole blood, non-pre-complexed, Mean (human IL-33 [3]): 1.57 nM
IC50, inhibition of 30 ng/mL IL-33 induced IFN-γ secretion from whole blood, non-pre-complexed, donor #32871 (human IL-33 [3]): 0.97 nM
IC50, inhibition of 30 ng/mL IL-33 induced IFN-γ secretion from whole blood, non-pre-complexed, donor #90237 (human IL-33 [3]): 2.6 nM
IC50, inhibition of 30 ng/mL IL-33 induced IFN-γ secretion from whole blood, non-pre-complexed, donor #91680 (human IL-33 [3]): 1.6 nM
IC50, inhibition of 30 ng/mL IL-33 induced IFN-γ secretion from whole blood, non-pre-complexed, donor #91955 (human IL-33 [3]): 0.48 nM
IC50, inhibition of 30 ng/mL IL-33 induced IFN-γ secretion from whole blood, non-pre-complexed, donor #91986 (human IL-33 [3]): 3.04 nM
IC50, inhibition of 30 ng/mL IL-33 induced IFN-γ secretion from whole blood, non-pre-complexed, donor #92251 (human IL-33 [3]): 0.74 nM
pIC50, inhibition of 30 ng/mL IL-33 induced IFN-γ secretion from whole blood, non-pre-complexed, Mean (human IL-33 [3]): 8.89
pIC50, inhibition of 30 ng/mL IL-33 induced IFN-γ secretion from whole blood, non-pre-complexed, donor #32871 (human IL-33 [3]): 9.01
pIC50, inhibition of 30 ng/mL IL-33 induced IFN-γ secretion from whole blood, non-pre-complexed, donor #90237 (human IL-33 [3]): 8.58
pIC50, inhibition of 30 ng/mL IL-33 induced IFN-γ secretion from whole blood, non-pre-complexed, donor #91680 (human IL-33 [3]): 8.79
pIC50, inhibition of 30 ng/mL IL-33 induced IFN-γ secretion from whole blood, non-pre-complexed, donor #91955 (human IL-33 [3]): 9.31
pIC50, inhibition of 30 ng/mL IL-33 induced IFN-γ secretion from whole blood, non-pre-complexed, donor #91986 (human IL-33 [3]): 8.51
pIC50, inhibition of 30 ng/mL IL-33 induced IFN-γ secretion from whole blood, non-pre-complexed, donor #92251 (human IL-33 [3]): 9.13
IC50, inhibition of 1 ng/mL human IL-33 induced IL-6 production, mouse bone marrow-derived mast cells (human IL-33 [4]): 0.0312 nM
IC50, inhibition of 1 ng/mL human IL-33 induced IL-13 production, mouse bone marrow-derived mast cells (human IL-33 [4]): 0.028 nM
IC50, inhibition of 1 ng/mL human IL-33 induced IL-18 production, mouse bone marrow-derived mast cells (human IL-33 [4]): 0.0613 nM
IC50, inhibition of 1 ng/mL human IL-33 induced TNF-α production, mouse bone marrow-derived mast cells (human IL-33 [4]): 0.0374 nM
pIC50, inhibition of 1 ng/mL human IL-33 induced IL-6 production, mouse bone marrow-derived mast cells (human IL-33 [4]): 10.5
B1: 22A06-458 (antibody, human IgG1, kappa)
heavy: QVQLVQSGAEVKKPGASVKVSCKASGYTFISYGMHWVRQAPGQGLEWMGEINPHGGSTSYAQKFKGRVTMTRDTSTSTVYMELSSLRSEDTAVYYCARPSAAYSHYLGIDLWGRGTLVTVSSASTKGPSVFPLAPSSKSTSGGTAALGCLVKDYFPEPVTVSWNSGALTSGVHTFPAVLQSSGLYSLSSVVTVPSSSLGTQTYICNVNHKPSNTKVDKKVEPKSCDKTHTCPPCPAPELLGGPSVFLFPPKPKDTLYITREPEVTCVVVDVSHEDPEVKFNWYVDGVEVHNAKTKPREEQYNSTYRVVSVLTVLHQDWLNGKEYKCKVSNKALPAPIEKTISKAKGQPREPQVYTLPPSRDELTKNQVSLTCLVKGFYPSDIAVEWESNGQPENNYKTTPPVLDSDGSFFLYSKLTVDKSRWQQGNVFSCSVMHEALHNHYTQKSLSLSPGK
light: DIQMTQSPSSVSASVGDRVTITCRASQGISSWLAWYQQKPGKAPKLLIYAASRLQSGVPSRFSGSGSGTDFTLTISSLQPEDFATYYCQQANVFPLTFGGGTKVEIKRTVAAPSVFIFPPSDEQLKSGTASVVCLLNNFYPREAKVQWKVDNALQSGNSQESVTEQDSKDSTYSLSSTLTLSKADYEKHKVYACEVTHQGLSSPVTKSFNRGEC
